Measurements from paper PMC10484922, “Discovery of a selective and biologically active low-molecular weight antagonist of human interleukin-1β” (Nature Communications, 2023).
Where “and” joins values, the source holds several entries; their conditions need not be identical. Identical values can stand only once. Like-named read-outs stand apart in the source and are kept apart here.

Molecular target: T1, hIL-1R1 (Homo sapiens, UniProt P14778)
T1 construct: the cell suspension containing the mature Interleukin-1R1(21–337)-His6 was centrifuged; made in house; host or cells: HEK-ExpiGnti- cells (transient, secreted)
T1 sequence (P14778 21-337): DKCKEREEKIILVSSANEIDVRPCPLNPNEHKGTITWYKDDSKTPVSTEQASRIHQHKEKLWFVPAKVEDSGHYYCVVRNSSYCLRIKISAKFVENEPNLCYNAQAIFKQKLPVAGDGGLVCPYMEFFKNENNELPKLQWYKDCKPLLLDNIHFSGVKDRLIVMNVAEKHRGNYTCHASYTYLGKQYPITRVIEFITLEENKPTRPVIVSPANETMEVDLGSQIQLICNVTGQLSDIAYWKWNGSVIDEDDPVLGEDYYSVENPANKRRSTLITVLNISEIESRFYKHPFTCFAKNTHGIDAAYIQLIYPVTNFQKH
Assay: SPR binding of IL-1β and V47A variant to immobilized IL-1R1
Details: source data, read-out: SPR binding to IL-1R1, individual experiments (Exp1-3)
Method: The receptor IL-1R1 was covalently immobilized to the chip surface of a CMD50L sensor by amine coupling. The coupling reagents (EDC/NHS and ethanolamine) were from Bruker. 1× PBS pH 7.5 (Gibco 70011-036, 10×), 0.05 % Tween-20 was used as running buffer. The chip surface was activated with a 3 min injection of EDC/NHS (200 mM 1-ethyl-3-(3-dimethylaminopropyl)-carbodiimide hydrochloride, 25 mM N-hydroxysuccinimide), followed by the protein injection of 0.02 mg/ml IL-1R1 diluted in 10 mM sodium acetate pH 5.0 for 3 min at 10 μl/min. The remaining active succinimides on the surface were deactivated by an injection of 1 M ethanolamine hydrochloride pH 8.5 over 3 min at 10 μl/min.
The injection of the protein dilution series was performed with 8 concentrations in SICK mode (single injection cycle kinetic) with a flow rate of 40 μl/min and 2 reference injections with buffer before and after the protein injection.
Data analysis was performed with the Sierra Analyzer 3.4.0 software from Bruker. Signal intensities were corrected for nonspecific binding to the surface by subtracting intensities from the reference surface from those of the hIL-1β surfaces (first reference subtraction) and by subtracting the buffer injection (second reference subtraction). […]
as se ss ed by SPR. Bindi ng of hI L-1b (a, b) and hI L-1bV47A (c, d) to hI L-1R1 monitored by SPR. […]

In the case of “hIL-1β: proteolytically processed mature human interleukin-1β, analyte in SPR on IL-1R1”, the Kd (listed as wt IL-1beta) is reported as 3.9 nM and 2.4 nM.
With “hIL-1β^V47A: hIL-1β variant with Val47 replaced by Ala” the Kd (listed as IL-1beta V47A) was 3.4 nM and 4.3 nM and 4 nM.
